Patent US20090275083A1
Numbering of substitutions follows the chain as printed.

Experiments:
[1] = target: T1, Fusarium oxysporum lipase (FoL), wild type (Fusarium oxysporum); experiment: cell-based or functional assay
T1 chain: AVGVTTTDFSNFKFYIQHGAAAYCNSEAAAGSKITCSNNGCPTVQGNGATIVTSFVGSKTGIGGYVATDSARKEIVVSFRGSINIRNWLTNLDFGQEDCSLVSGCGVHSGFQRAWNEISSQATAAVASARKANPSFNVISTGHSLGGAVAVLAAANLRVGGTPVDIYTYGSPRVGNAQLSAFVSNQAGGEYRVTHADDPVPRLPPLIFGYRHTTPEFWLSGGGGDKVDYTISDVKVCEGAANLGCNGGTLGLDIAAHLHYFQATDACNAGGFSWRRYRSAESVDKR

[2] = target: T2, Fusarium oxysporum lipase (FoL) variant [change] (Fusarium oxysporum); experiment: cell-based or functional assay
T2 chain: T1 chain with I207E

Q: With ATMTDAELEKKLNSYVQMDKEYVKNNQARS (modifications not checked) [Peptide P0 (wildtype FoL C-terminal peptide)] as the binder, how does the IC50 (half maximal inhibitory concentration; p-NP butyrate hydrolysis) (peptide/lipase ratio) [1] read?
A: 913

Q: And the IC50 (half maximal inhibitory concentration; p-NP butyrate hydrolysis) (peptide/lipase ratio) [2]?
A: 287
